Experimental data: patent US20190218277A1 (Chugai, published 2019)
Numbering of substitutions follows the chain as printed.

B1: DG_3CH953-SG182/3CL633-SK1 (antibody, V domains shown)
VH: QVQLVQSGPDVEKPGASVKVSCKASGYTFTSNYIHWVRQAPGQGLEWMGVINPRGGSRRSAQKFQGRITMTRDTSTSTVYMELSSLRSEDTAVYYCARGGRALFYDSYTTPFDGGSWWFDPWGQGSLVTVSS
VL: DIQLTQSPSSLSASVGDRVTITCQASQDIRKYLNWYQQKPGKAPKLLIYDASNLKTGVPSRFSGSGSGTDFTLTISSLQPEDVATYYCQQFDDLPITFGQGTRLQIKR
B2: DG_3CH953-SG182/3CL666-SK1 (antibody, V domains shown)
VH: B1 VH
VL: B1 VL with D28E
B3: DG_3CH953-SG182/3CL668-SK1 (antibody, V domains shown)
VH: B1 VH
VL: B1 VL with D92E
B4: DG_3CH953-SG1095/3CL012-SK1 (antibody, human IgG1, kappa, L234A L235A)
heavy: QVQLVQSGPDVEKPGASVKVSCKASGYTFTSNYIHWVRQAPGQGLEWMGVINPRGGSRRSAQKFQGRITMTRDTSTSTVYMELSSLRSEDTAVYYCARGGRALFYDSYTTPFDGGSWWFDPWGQGSLVTVSSASTKGPSVFPLAPSSKSTSGGTAALGCLVKDYFPEPVTVSWNSGALTSGVHTFPAVLQSSGLYSLSSVVTVPSSSLGTQTYICNVNHKPSNTKVDKRVEPKSCDKTHTCPPCPAPEAAGGPSVFLFPPKPKDTLMISRTPEVTCVVVDVSHEDPEVKFNWYVDGVEVHNAKTKPREEQYNSTYRVVSVLTVLHQDWLNGKEYKCKVSNAALPAPISKTISKAKGQPREPQVYTLPPSREEMTKNQVSLTCLVKGFYPSDIAVEWESNGQPENNYKTTPPVLDSDGSFFLYSKLTVDKSRWQQGNVFSCSVMHEALHNHYTQKSLSLSP
light: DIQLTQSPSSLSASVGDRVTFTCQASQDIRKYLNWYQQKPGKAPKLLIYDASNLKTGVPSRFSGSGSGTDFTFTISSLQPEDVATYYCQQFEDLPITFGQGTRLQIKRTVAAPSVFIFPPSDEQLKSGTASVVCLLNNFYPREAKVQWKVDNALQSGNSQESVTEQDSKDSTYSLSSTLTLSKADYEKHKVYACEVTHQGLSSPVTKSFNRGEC
B5: DG_3CH953-SG1095/3CL119-SK1 (antibody)
heavy: B4 heavy
light: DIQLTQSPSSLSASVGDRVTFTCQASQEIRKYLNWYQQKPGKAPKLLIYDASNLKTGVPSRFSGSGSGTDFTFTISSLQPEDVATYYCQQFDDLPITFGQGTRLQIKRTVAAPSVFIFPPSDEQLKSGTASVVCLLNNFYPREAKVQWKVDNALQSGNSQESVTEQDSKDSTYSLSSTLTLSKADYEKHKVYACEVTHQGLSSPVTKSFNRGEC
B6: DG_3CH953-SG1095/3CL-SK1 (antibody, human IgG1, kappa, L234A L235A)
heavy: B4 heavy
light: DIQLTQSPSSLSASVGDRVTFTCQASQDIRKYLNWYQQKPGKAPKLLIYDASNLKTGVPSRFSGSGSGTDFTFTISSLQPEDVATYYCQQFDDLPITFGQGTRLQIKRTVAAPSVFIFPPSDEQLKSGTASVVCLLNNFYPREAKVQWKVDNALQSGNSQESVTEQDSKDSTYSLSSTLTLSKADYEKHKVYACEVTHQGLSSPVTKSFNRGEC
B7: DG_3CH953-SG1106/3CL-SK1 (antibody)
heavy: B4 heavy with M443L, N449A, Q453R, S455E
light: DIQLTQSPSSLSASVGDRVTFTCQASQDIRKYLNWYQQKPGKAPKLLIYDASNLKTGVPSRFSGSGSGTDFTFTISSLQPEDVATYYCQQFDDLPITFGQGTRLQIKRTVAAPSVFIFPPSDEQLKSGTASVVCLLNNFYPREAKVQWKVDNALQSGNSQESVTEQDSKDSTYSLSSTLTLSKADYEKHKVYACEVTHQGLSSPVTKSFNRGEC
B8: DG_3CH987-SG182/3CL012-SK1 (antibody, V domains shown)
VH: B1 VH with N32Y
VL: B1 VL with I21F, L73F, D92E
B9: DG_3CH987-SG182/3CL119-SK1 (antibody, V domains shown)
VH: B1 VH with N32Y
VL: B1 VL with I21F, D28E, L73F
B10: DG_3CH987-SG182/3CL-SK1 (antibody, V domains shown)
VH: B1 VH with N32Y
VL: B1 VL with I21F, L73F
B11: DG_3CH989-SG182/3CL012-SK1 (antibody, V domains shown)
VH: B1 VH with P9A, D10E, E12K, I68V
VL: B1 VL with I21F, L73F, D92E
B12: DG_3CH989-SG182/3CL119-SK1 (antibody, V domains shown)
VH: B1 VH with P9A, D10E, E12K, I68V
VL: B1 VL with I21F, D28E, L73F
B13: DG_3CH989-SG182/3CL633-SK1 (antibody, V domains shown)
VH: B1 VH with P9A, D10E, E12K, I68V
VL: B1 VL
B14: DG_3CH989-SG182/3CL666-SK1 (antibody, V domains shown)
VH: B1 VH with P9A, D10E, E12K, I68V
VL: B1 VL with D28E
B15: DG_3CH989-SG182/3CL668-SK1 (antibody, V domains shown)
VH: B1 VH with P9A, D10E, E12K, I68V
VL: B1 VL with D92E
B16: DG_3CH989-SG182/3CL-SK1 (antibody, V domains shown)
VH: B1 VH with P9A, D10E, E12K, I68V
VL: B1 VL with I21F, L73F
B17: DG_3CH992-SG182/3CL012-SK1 (antibody, V domains shown)
VH: B1 VH with P9A, D10E, E12K, N32Y, I68V
VL: B1 VL with I21F, L73F, D92E
B18: DG_3CH992-SG182/3CL119-SK1 (antibody, V domains shown)
VH: B1 VH with P9A, D10E, E12K, N32Y, I68V
VL: B1 VL with I21F, D28E, L73F
B19: DG_3CH992-SG182/3CL633-SK1 (antibody, V domains shown)
VH: B1 VH with P9A, D10E, E12K, N32Y, I68V
VL: B1 VL
B20: DG_3CH992-SG182/3CL666-SK1 (antibody, V domains shown)
VH: B1 VH with P9A, D10E, E12K, N32Y, I68V
VL: B1 VL with D28E
B21: DG_3CH992-SG182/3CL-SK1 (antibody, V domains shown)
VH: B1 VH with P9A, D10E, E12K, N32Y, I68V
VL: B1 VL with I21F, L73F
B22: DG_3CH1000-SG182/3CL633-SK1 (antibody, V domains shown)
VH: B1 VH with N32Y, I34M
VL: B1 VL
B23: DG_3CH1000-SG182/3CL666-SK1 (antibody, V domains shown)
VH: B1 VH with N32Y, I34M
VL: B1 VL with D28E
B24: DG_3CH1000-SG182/3CL668-SK1 (antibody, V domains shown)
VH: B1 VH with N32Y, I34M
VL: B1 VL with D92E
B25: DG_3CH1047-SG1095/3CL-SK1 (antibody, human IgG1, kappa, L234A L235A)
heavy: B4 heavy with N32Y, I34M, R101E
light: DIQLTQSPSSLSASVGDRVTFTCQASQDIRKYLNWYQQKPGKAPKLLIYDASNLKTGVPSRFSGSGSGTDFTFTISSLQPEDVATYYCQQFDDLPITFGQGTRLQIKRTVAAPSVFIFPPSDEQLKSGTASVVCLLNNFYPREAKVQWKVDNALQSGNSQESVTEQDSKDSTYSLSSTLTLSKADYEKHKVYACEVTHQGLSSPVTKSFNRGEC
B26: DG_3CH1047-SG1106/3CL-SK1 (antibody)
heavy: B4 heavy with N32Y, I34M, R101E, M443L, N449A, Q453R, S455E
light: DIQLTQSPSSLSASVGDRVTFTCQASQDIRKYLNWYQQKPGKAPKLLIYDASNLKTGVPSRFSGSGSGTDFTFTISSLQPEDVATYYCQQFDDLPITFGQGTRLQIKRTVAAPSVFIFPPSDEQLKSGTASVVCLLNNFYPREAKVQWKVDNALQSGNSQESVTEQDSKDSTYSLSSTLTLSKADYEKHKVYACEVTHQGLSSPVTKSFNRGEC

target: T1, Recombinant soluble E protein (0.8E-His) from DENV-3 (DENV-3, UniProt P27915 281-673); assay: not given
T1 construct: also called DENV-3 E protein; DV3

Q: How did the Kd turn out when B1 was run?
A: 4.96 pM

Q: For B2, which Kd is on record?
A: 5.48 pM

Q: B3 was tested. Which Kd did it give?
A: 2.36 pM

Q: For B4, which Kd is on record?
A: 5.53 pM

Q: B5 was tested. Which Kd did it give?
A: 7.18 pM

Q: How did the Kd turn out when B6 was run?
A: 7.03 pM

Q: For B7, which Kd is on record?
A: 7.08 pM

Q: For B8, which Kd is on record?
A: 2.67 pM

Q: With B9 as the binder, how does the Kd read?
A: 0.715 pM

Q: How did the Kd turn out when B10 was run?
A: 0.986 pM

Q: For B11, which Kd is on record?
A: 0.0967 pM

Q: With B12 as the binder, how does the Kd read?
A: 6.83 pM

Q: Which Kd does the source give for B13 here?
A: 2.37 pM

Q: For B14, which Kd is on record?
A: 1.96 pM

Q: For B15, which Kd is on record?
A: 3.03 pM

Q: With B16 as the binder, how does the Kd read?
A: 0.448 pM

Q: For B17, which Kd is on record?
A: 1.07 pM

Q: For B18, which Kd is on record?
A: 0.515 pM

Q: B19 was tested. Which Kd did it give?
A: 2.95 pM

Q: B20 was tested. Which Kd did it give?
A: 0.802 pM

Q: Which Kd does the source give for B21 here?
A: 4.03 pM

Q: How did the Kd turn out when B22 was run?
A: 4.25 pM

Q: How did the Kd turn out when B23 was run?
A: 2.5 pM

Q: For B24, which Kd is on record?
A: 0.8 pM

Q: B25 was tested. Which Kd did it give?
A: 2.93 pM

Q: Which Kd does the source give for B26 here?
A: 4.71 pM

target: T2, Recombinant soluble E protein (0.8E-His) from DENV-1 (DENV-1, UniProt P27909 281-675); assay: not given
T2 construct: also called DENV-1 E protein; DV1

Q: B1 was tested. Which Kd did it give?
A: 1650 pM

Q: B2 was tested. Which Kd did it give?
A: 1690 pM

Q: For B3, which Kd is on record?
A: 1680 pM

Q: Which Kd does the source give for B4 here?
A: 1860 pM

Q: How did the Kd turn out when B5 was run?
A: 1990 pM

Q: For B6, which Kd is on record?
A: 1790 pM

Q: For B7, which Kd is on record?
A: 1850 pM

Q: With B8 as the binder, how does the Kd read?
A: 1420 pM

Q: How did the Kd turn out when B9 was run?
A: 1530 pM

Q: How did the Kd turn out when B10 was run?
A: 1820 pM

Q: How did the Kd turn out when B11 was run?
A: 1520 pM

Q: With B12 as the binder, how does the Kd read?
A: 1530 pM

Q: How did the Kd turn out when B13 was run?
A: 1540 pM

Q: For B14, which Kd is on record?
A: 1500 pM

Q: B15 was tested. Which Kd did it give?
A: 1500 pM

Q: Which Kd does the source give for B16 here?
A: 1840 pM

Q: How did the Kd turn out when B17 was run?
A: 1720 pM

Q: Which Kd does the source give for B18 here?
A: 1870 pM

Q: With B19 as the binder, how does the Kd read?
A: 1270 pM

Q: B20 was tested. Which Kd did it give?
A: 1390 pM

Q: With B21 as the binder, how does the Kd read?
A: 2020 pM

Q: Which Kd does the source give for B22 here?
A: 1770 pM

Q: With B23 as the binder, how does the Kd read?
A: 1660 pM

Q: With B24 as the binder, how does the Kd read?
A: 1680 pM

Q: For B25, which Kd is on record?
A: 2090 pM

Q: For B26, which Kd is on record?
A: 2120 pM

target: T3, Recombinant soluble E protein (0.8E-His) from DENV-2 (DENV-2, UniProt P14340 281-675); assay: SPR, Biacore T200
T3 construct: also called DENV-2 E protein; DV2

Q: Does B1 bind?
A: binds

Q: Does B2 bind?
A: binds

Q: Does B3 bind?
A: binds

Q: Does B4 bind?
A: binds

Q: Does B5 bind?
A: binds

Q: Does B8 bind?
A: binds

Q: Does B9 bind?
A: binds

Q: Does B10 bind?
A: binds

Q: Does B11 bind?
A: binds

Q: Does B12 bind?
A: binds

Q: Does B13 bind?
A: binds

Q: Does B14 bind?
A: binds

Q: Does B15 bind?
A: binds

Q: Does B16 bind?
A: binds

Q: Does B17 bind?
A: binds

Q: Does B18 bind?
A: binds

Q: Does B19 bind?
A: binds

Q: Does B20 bind?
A: binds

Q: Does B21 bind?
A: binds

Q: Does B22 bind?
A: binds

Q: Does B23 bind?
A: binds

Q: Does B24 bind?
A: binds

target: T4, Recombinant soluble E protein (0.8E-His) from DENV-4 (DENV-4, UniProt P09866 280-674); assay: SPR, Biacore T200
T4 construct: also called DENV-4 E protein; DV4

Q: Does B1 bind?
A: binds

Q: Does B2 bind?
A: binds

Q: Does B3 bind?
A: binds

Q: Does B4 bind?
A: binds

Q: Does B5 bind?
A: binds

Q: Does B8 bind?
A: binds

Q: Does B9 bind?
A: binds

Q: Does B10 bind?
A: binds

Q: Does B11 bind?
A: binds

Q: Does B12 bind?
A: binds

Q: Does B13 bind?
A: binds

Q: Does B14 bind?
A: binds

Q: Does B15 bind?
A: binds

Q: Does B16 bind?
A: binds

Q: Does B17 bind?
A: binds

Q: Does B18 bind?
A: binds

Q: Does B19 bind?
A: binds

Q: Does B20 bind?
A: binds

Q: Does B21 bind?
A: binds

Q: Does B22 bind?
A: binds

Q: Does B23 bind?
A: binds

Q: Does B24 bind?
A: binds
